Laboratory results taken from paper PMC11570472, “Activity and phosphatidylcholine transfer protein interactions of skeletal muscle thioesterase Them2 enable hepatic steatosis and insulin resistance” (The Journal of Biological Chemistry, 2024).
Positions count from the first letter of the chain named. In names and notes the source's numbering stands.

B1: His-tagged WT mouse Thioesterase superfamily member 2 (Them2), purified recombinant (enzyme, UniProt Q9CQR4 1-140, looked up)
chain: MSSMTQNLREVMKVMFKVPGFDRVLEKVTLVSAAPEKLICEMKVEEQHTNKLGTLHGGLTATLVDSISTMALMCTERGAPGVSVDMNITYMSPAKIGEEIVITAHILKQGKTLAFASVDLTNKTTGKLIAQGRHTKHLGN
notes: also called WT Them2; acyl-CoA thioesterase 13
B2: His-tagged N50A/D65A mouse Them2, purified recombinant (enzyme, UniProt Q9CQR4 1-140, looked up)
chain: B1 chain with N50A, D65A
notes: also called N50A/D65A Them2

Target: the molecule itself
Assay: SEC; purified recombinant protein (100 uM) on an analytical Superdex 75 10/300 column, 0.5 ml/min, UV absorbance at 280 nm

| Protein | stoichiometry N |
| --- | --- |
| B1 | 4 |
| B2 | 4 |
